Consider one molecule from paper PMC10499838 (Nature Communications, 2023).

This assay concerns the target RVFV Gn, WT sequence, transiently expressed in Expi293F cells (Rift Valley fever virus, GenBank …). The assay is described as follows: flow cytometry on cells. Particulars: one partner purified.

B1: RVFV-268 IgG1 (antibody, V domains shown)
VH: QVHLVESGGGVVQPGKSLRLSCAASGFIFNHFGIHWVRQSPGKGLEWVAVIWYDGSKKYFADSVKGRFSISRDNSQNTVYLQMNSLRTEDTAVYYCARERWSGHSYLDYWGHGALVTVSS
VL: SNVLTQPPSVSVAPGQTARISCGGNNLESKYVHWYQQKPGQAPVLVVYEDSGRPSGIPERFSGSNSGGTATLTISRVEAGDEADYYCQEWDTSSDYPVFGGGTKVTVL
notes: copies: 2 + 2
Take B1: the binding result is on record as “binds”.
